HBV-DNA values of transfected cell lines relative to control cell lines data for one substance are collected here from patent publication US6344362.

For the assay, the target named is SCCA1 recombinant protein expressed on transfected HepG2 and CHO cells (human).

Regarding “HBV viral particles present in the serum of patients with acute hepatitis B”, the HBV-DNA values of transfected cell lines relative to control cell lines worked out at 8 times.
